Assay [1] concerns the target PXN/paxillin, exogenously expressed in HEK293T cells (human) (UniProt P49023). In words: cross-linking.
For assay [2], the target named is recombinant PXN WT (human) (UniProt P49023). Nature of the assay: SEC-MALS.

As a reminder, the stoichiometry N is the number of molecules, sites or subunits per partner or assembly. In assay [1], “PXN/paxillin, exogenously expressed in HEK293T cells (from UniProt P49023-2 1-557) (natural protein)” had a stoichiometry N of 2. On to “recombinant PXN WT (from UniProt P49023-2 1-557) (natural protein)”, for which, in assay [2], the stoichiometry N is 2.
